According to US20250026833A1 (WUXI BIOLOGICS IRELAND, published 2025):

Biological target: T1, hPD-L1-ECD.mFc, W315-hPro1.ECD.mFc (in house) (human, UniProt Q9NZQ7 19-238)
T1 construct: extracellular domain; also called Human PD-L1, mFc tag; not shown: C-terminal mouse Fc
Assay: dual binding (bridging) ELISA: plate coated with hVEGF.his, titrated antibody, then hPD-L1-ECD.mFc at 1 ug/ml, HRP goat anti-mouse IgG

T1 sequence (Q9NZQ7 19-238): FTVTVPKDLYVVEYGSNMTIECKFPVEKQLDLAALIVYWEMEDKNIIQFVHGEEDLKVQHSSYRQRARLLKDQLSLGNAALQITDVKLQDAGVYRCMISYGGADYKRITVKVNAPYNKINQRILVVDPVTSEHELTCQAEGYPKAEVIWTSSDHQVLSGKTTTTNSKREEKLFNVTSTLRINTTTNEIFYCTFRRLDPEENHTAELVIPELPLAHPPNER

B1: Avastin (bevacizumab) (antibody, human IgG1, V domains shown)
VH: EVQLVESGGGLVQPGGSLRLSCAASGYTFTNYGMNWVRQAPGKGLEWVGWINTYTGEPTYAADFKRRFTFSLDTSKSTAYLQMNSLRAEDTAVYYCAKYPHYYGSSHWYFDVWGQGTLVTVSS
VL: DIQMTQSPSSLSASVGDRVTITCSASQDISNYLNWYQQKPGKAPKVLIYFTSSLHSGVPSRFSGSGSGTDFTLTISSLQPEDFATYYCQQYSTVPWTFGQGTKVEIK
notes: also called parental anti-VEGF antibody
B1: no binding (tested: 100 nM).
